Measurements published in PMC5963871, “Regulation and function of H3K36 di-methylation by the trithorax-group protein complex AMC” (Development (Cambridge, England), 2018).

T1: Drosophila Ash1_(XL-SET) (Ash1_(1275-1522)) (Drosophila, UniProt Q9VW15 1275-1522)
T1 sequence (looked up): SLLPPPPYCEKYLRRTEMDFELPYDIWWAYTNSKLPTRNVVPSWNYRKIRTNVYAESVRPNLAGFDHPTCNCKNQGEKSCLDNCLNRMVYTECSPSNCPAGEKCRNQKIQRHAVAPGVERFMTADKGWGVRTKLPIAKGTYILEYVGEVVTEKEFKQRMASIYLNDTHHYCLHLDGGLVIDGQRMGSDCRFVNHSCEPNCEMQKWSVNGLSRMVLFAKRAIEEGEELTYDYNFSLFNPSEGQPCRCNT

B1: Drosophila full-length MRG15 (E. coli) (natural protein, UniProt Q9Y0I1 1-424, looked up)
chain: MGEVKPAKVENYSTGTDANTLFVDGERVLCFHGPLIYEAKVLKTKPDATPVEYYIHYAGWSKNWDEWVPENRVLKYNDDNVKRRQELARQCGERSKKDNKKGSAKAKKMEQMRNESRASTPSKDSNTSQSTASSTPTTSAGPGSKSEAGSTGTTTTNSTANSTTSRAHRKSTQSTPSTARPGTPSDKKEDPAAAETTEEEGPVAPKKKRMSEQRPSLTGSDVAEKPLPPTTTPSTPTTEPAPCVESEEAYAAKVEVKIKIPDELKHYLTDDWYAVVREHKLLELPAKVTVQQISEQYLAHKKSVKSTSASKEVAINDVLDGIVEYFNVMLGSQLLYKFERTQYADVMQKHPDTPLSELYGSFHLLRLFVRLGSMLSYSALDQQSMQNLLTHVQDFLKFLVKNSSIFFSMSNFINVDPEYVRNAQ
B2: MRG domain of human MRG15 (MRG15_(151-362), MRG15MRG) (domain or fragment)
chain: KNKQKTPGNGDGGSTSETPQPPRKKRARVDPTVENEETFMNRVEVKVKIPEELKPWLVDDWDLITRQKQLFYLPAKKNVDSILEDYANYKKSRGNTDNKEYAVNEVVAGIKEYFNVMLGTQLLYKFERPQYAEILADHPDAPMSQVYGAPHLLRLFVRIGAMLAYTPLDEKSLALLLNYLHDFLKYLAKNSATLFSASDYEVAPPEYHRKAV

How the values were obtained:
[1] = molecular target: T1, Drosophila Ash1_(XL-SET) …; assay: cell-based or functional assay
[2] = molecular target: human ASH1L_(XL-SET) (ASH1L_(2035-2288)) (human, UniProt Q9NR48 2035-2288); assay: cell-based or functional assay

Row | Binder | HMTase activity on recombinant oligonucleosome arrays (methyl-3H incorporation into histone H3, fluorography): Ash1_(XL-SET):MRG15 complex compared with Ash1_(XL-SET) alone [1] | HMTase activity on recombinant oligonucleosome arrays (methyl-3H incorporation into histone H3, fluorography): ASH1L_(XL-SET):MRG15MRG complex compared with ASH1L_(XL-SET) alone [2]
1 | B1 | ~30 fold | 
2 | B2 |  | ~7 fold
